Assay results from the supplement of paper PMC10567573.

B1: FBXO39 (parent)
chain: PSRVHASEVESAVWYVKKFGRYLE

Variants of: B1
Test: protein stability index of a GFP-peptide fusion (GPS, HEK-293T) (PSI 1-6); higher = more stable
Settings: c terminus: a fixed tail appended
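Note: lentivirally expressed fusions sorted by FACS into six bins by GFP to DsRed ratio, PSI derived from sequencing read proportions per bin multiplied by bin number.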

Variant | protein stability index
PSRVHALEVESAVWYVKKFGRYLE | 1.64
PSRVHAWEVESAVWYVKKFGRYLE | 1.59
PSRVHAREVESAVWYVKKFGRYLE | 1.48
PSRVHAQEVESAVWYVKKFGRYLE | 2.36
PSRVHAFEVESAVWYVKKFGRYLE | 1.97
PSRVHAAEVESAVWYVKKFGRYLE | 2.22
PSRVHAKEVESAVWYVKKFGRYLE | 1.67
PSRVHAIEVESAVWYVKKFGRYLE | 1.84
PSRVHAMEVESAVWYVKKFGRYLE | 1.81
PSRVHAYEVESAVWYVKKFGRYLE | 2.4
PSRVHAGEVESAVWYVKKFGRYLE | 1.66
PSRVHAVEVESAVWYVKKFGRYLE | 2.13
PSRVHANEVESAVWYVKKFGRYLE | 2.12
PSRVHACEVESAVWYVKKFGRYLE | 1.48
PSRVHADEVESAVWYVKKFGRYLE | 2.68
PSRVHAHEVESAVWYVKKFGRYLE | 2.24
PSRVHATEVESAVWYVKKFGRYLE | 1.77
PSRVHAEEVESAVWYVKKFGRYLE | 2.09
PSRVHAPEVESAVWYVKKFGRYLE | 2.33
PSRVHISEVESAVWYVKKFGRYLE | 2.06
PSRVHRSEVESAVWYVKKFGRYLE | 1.56
PSRVHYSEVESAVWYVKKFGRYLE | 1.58
PSRVHMSEVESAVWYVKKFGRYLE | 1.27
PSRVHVSEVESAVWYVKKFGRYLE | 1.7

Variant | protein stability index
PSRVHDSEVESAVWYVKKFGRYLE | 2.46
PSRVHLSEVESAVWYVKKFGRYLE | 2.24
PSRVHFSEVESAVWYVKKFGRYLE | 3.3
PSRVHHSEVESAVWYVKKFGRYLE | 1.76
PSRVHNSEVESAVWYVKKFGRYLE | 1.74
PSRVHPSEVESAVWYVKKFGRYLE | 1.82
PSRVHKSEVESAVWYVKKFGRYLE | 1.79
PSRVHTSEVESAVWYVKKFGRYLE | 2.4
PSRVHESEVESAVWYVKKFGRYLE | 2.32
PSRVHWSEVESAVWYVKKFGRYLE | 2.48
PSRVHGSEVESAVWYVKKFGRYLE | 1.97
PSRVHCSEVESAVWYVKKFGRYLE | 2.08
PSRVHSSEVESAVWYVKKFGRYLE | 2.72
PSRVHQSEVESAVWYVKKFGRYLE | 2.11
PSRVHASFVESAVWYVKKFGRYLE | 4.46
PSRVHASAVESAVWYVKKFGRYLE | 3.81
PSRVHASRVESAVWYVKKFGRYLE | 3.41
PSRVHASDVESAVWYVKKFGRYLE | 2.08
PSRVHASMVESAVWYVKKFGRYLE | 3.03
PSRVHASQVESAVWYVKKFGRYLE | 1.85
PSRVHASCVESAVWYVKKFGRYLE | 2.27
PSRVHASIVESAVWYVKKFGRYLE | 2.11
PSRVHASTVESAVWYVKKFGRYLE | 1.7
PSRVHASSVESAVWYVKKFGRYLE | 1.68

Variant | protein stability index
PSRVHASLVESAVWYVKKFGRYLE | 2.36
PSRVHASVVESAVWYVKKFGRYLE | 1.46
PSRVHASWVESAVWYVKKFGRYLE | 1.42
PSRVHASYVESAVWYVKKFGRYLE | 3.1
PSRVHASNVESAVWYVKKFGRYLE | 1.56
PSRVHASGVESAVWYVKKFGRYLE | 1.7
PSRVHASHVESAVWYVKKFGRYLE | 2.38
PSRVHASKVESAVWYVKKFGRYLE | 2.76
PSRVHASPVESAVWYVKKFGRYLE | 2.75
PSRVEASEVESAVWYVKKFGRYLE | 3.31
PSRVWASEVESAVWYVKKFGRYLE | 2.86
PSRVRASEVESAVWYVKKFGRYLE | 1.36
PSRVCASEVESAVWYVKKFGRYLE | 1.61
PSRVSASEVESAVWYVKKFGRYLE | 2.05
PSRVFASEVESAVWYVKKFGRYLE | 2.02
PSRVLASEVESAVWYVKKFGRYLE | 2.49
PSRVKASEVESAVWYVKKFGRYLE | 1.4
PSRVVASEVESAVWYVKKFGRYLE | 1.68
PSRVIASEVESAVWYVKKFGRYLE | 1.39
PSRVYASEVESAVWYVKKFGRYLE | 1.43
PSRVNASEVESAVWYVKKFGRYLE | 2.36
PSRVMASEVESAVWYVKKFGRYLE | 1.86
PSRVQASEVESAVWYVKKFGRYLE | 2.69
PSRVDASEVESAVWYVKKFGRYLE | 2.52

Variant | protein stability index
PSRVAASEVESAVWYVKKFGRYLE | 2.11
PSRVTASEVESAVWYVKKFGRYLE | 1.43
PSRVGASEVESAVWYVKKFGRYLE | 2.26
PSRVPASEVESAVWYVKKFGRYLE | 2
PSRYHASEVESAVWYVKKFGRYLE | 1.34
PSRQHASEVESAVWYVKKFGRYLE | 2.21
PSRWHASEVESAVWYVKKFGRYLE | 2.06
PSRMHASEVESAVWYVKKFGRYLE | 1.97
PSRSHASEVESAVWYVKKFGRYLE | 1.58
PSRPHASEVESAVWYVKKFGRYLE | 1.92
PSRTHASEVESAVWYVKKFGRYLE | 1.65
PSRLHASEVESAVWYVKKFGRYLE | 2.22
PSRNHASEVESAVWYVKKFGRYLE | 2.13
PSRRHASEVESAVWYVKKFGRYLE | 1.8
PSRVHASEFESAVWYVKKFGRYLE | 1.62
PSRVHASECESAVWYVKKFGRYLE | 2.48
PSRVHASEHESAVWYVKKFGRYLE | 2.29
PSRVHASEDESAVWYVKKFGRYLE | 2.96
PSRVHASEIESAVWYVKKFGRYLE | 2.01
PSRVHASEGESAVWYVKKFGRYLE | 3.35
PSRVHASEAESAVWYVKKFGRYLE | 2.09
PSRVHASEEESAVWYVKKFGRYLE | 3.31
